{"source": "patent US12186374B2", "about": "(Sanofi-Aventis Deutschland GmbH, priority 2014, dated 2025)", "key": {"[1]": {"system": "patients with Type 2 diabetes mellitus (T2DM)", "test": "Body weight change from baseline to Week 30 (Example 2)", "type": "in vivo, human", "source_text": "Body weight should be obtained with the patient wearing undergarments or very light clothing and no shoes, and with an empty bladder. The same scale should be used throughout the study, and calibrated on a regular basis as recommended by the manufacturer.\nSimilar MMRM method or ANCOVA was applied on continuous secondary efficacy endpoints and Cochran-Mantei-Haenszel method stratified by randomization strata was applied on categorical efficacy endpoints."}, "[2]": {"system": "patients with Type 2 diabetes mellitus (T2DM)", "test": "Treatment-emergent adverse events incl. serious, fatal, leading to discontinuation (Example 2)"}, "[3]": {"conditions": "PT ≥3% in any treatment group, Safety population"}}}
{"substance": "Gly(A21)-Arg(B31)-Arg(B32)-human insulin [Insulin Glargine]", "values": [{"measurement": "LS mean body weight change from baseline to Week 30", "setting": "[1]; Example 2", "value": "+1.10 kg"}, {"measurement": "Body weight, change from baseline to Week 30, LS Mean (SE)", "setting": "[1]; MMRM, mITT population", "value": "−1.11 (0.183) kg"}, {"measurement": "Body weight, Week 30, Mean (SD)", "setting": "[1]; mITT population", "value": "90.68 (16.03) kg"}, {"measurement": "Body weight, Week 30, Median", "setting": "[1]; mITT population", "value": 89.00, "unit": "kg"}, {"measurement": "Diarrhea, % of patients", "setting": "[2]; Example 2", "value": 4.3, "unit": "%"}, {"measurement": "Nausea, % of patients", "setting": "[2]; Example 2", "value": 3.6, "unit": "%"}, {"measurement": "Nausea, number of patients", "setting": "[2]; Example 2", "value": 17, "unit": "patients"}, {"measurement": "Overall incidence of gastrointestinal adverse events", "setting": "[2]; Example 2", "value": 12.6, "unit": "%"}, {"measurement": "Patients reporting treatment-emergent adverse events, %", "setting": "[2]; Example 2", "value": 48.6, "unit": "%"}, {"measurement": "Patients reporting treatment-emergent adverse events, number", "setting": "[2]; Example 2", "value": 227, "unit": "patients"}, {"measurement": "Patients who withdrew from treatment due to TEAEs", "setting": "[2]; Example 2", "value": 1.9, "unit": "%"}, {"measurement": "Patients with at least 1 TEAE leading to death", "setting": "[2]; Example 2", "value": 3, "unit": "patients"}, {"measurement": "Serious TEAEs, % of patients", "setting": "[2]; Example 2", "value": 4.1, "unit": "%"}, {"measurement": "Serious TEAEs, number of patients", "setting": "[2]; Example 2", "value": 19, "unit": "patients"}, {"measurement": "Upper respiratory tract infection, % of patients", "setting": "[2]; Example 2", "value": 4.9, "unit": "%"}, {"measurement": "Withdrawals caused by gastrointestinal adverse events", "setting": "[2]; Example 2", "value": 0.2, "unit": "%"}, {"measurement": "TEAE: Back pain", "setting": "[2]; [3]", "value": "10 (2.1%) n (%)"}, {"measurement": "TEAE: Diarrhoea", "setting": "[2]; [3]", "value": "20 (4.3%) n (%)"}, {"measurement": "TEAE: Dizziness", "setting": "[2]; [3]", "value": "7 (1.5%) n (%)"}, {"measurement": "TEAE: Headache", "setting": "[2]; [3]", "value": "15 (3.2%) n (%)"}, {"measurement": "TEAE: Influenza", "setting": "[2]; [3]", "value": "11 (2.4%) n (%)"}, {"measurement": "TEAE: Nasopharyngitis", "setting": "[2]; [3]", "value": "25 (5.4%) n (%)"}, {"measurement": "TEAE: Nausea", "setting": "[2]; [3]", "value": "17 (3.6%) n (%)"}, {"measurement": "TEAE: Upper respiratory tract infection", "setting": "[2]; [3]", "value": "23 (4.9%) n (%)"}, {"measurement": "TEAE: Vomiting", "setting": "[2]; [3]", "value": "7 (1.5%) n (%)"}, {"measurement": "Serious TEAE: Acquired phimosis", "setting": "[2]; PT, Safety population", "value": "0 n (%)"}, {"measurement": "Serious TEAE: Acute kidney injury", "setting": "[2]; PT, Safety population", "value": "0 n (%)"}, {"measurement": "Serious TEAE: Acute myocardial infarction", "setting": "[2]; PT, Safety population", "value": "1 (0.2%) n (%)"}, {"measurement": "Serious TEAE: Acute pulmonary oedema", "setting": "[2]; PT, Safety population", "value": "1 (0.2%) n (%)"}, {"measurement": "Serious TEAE: Anaphylactic reaction", "setting": "[2]; PT, Safety population", "value": "0 n (%)"}, {"measurement": "Serious TEAE: Angioedema", "setting": "[2]; PT, Safety population", "value": "0 n (%)"}, {"measurement": "Serious TEAE: Bladder prolapse", "setting": "[2]; PT, Safety population", "value": "1 (0.2%) n (%)"}, {"measurement": "Serious TEAE: Bronchitis", "setting": "[2]; PT, Safety population", "value": "1 (0.2%) n (%)"}, {"measurement": "Serious TEAE: Calculus urinary", "setting": "[2]; PT, Safety population", "value": "1 (0.2%) n (%)"}, {"measurement": "Serious TEAE: Cardiac failure acute", "setting": "[2]; PT, Safety population", "value": "1 (0.2%) n (%)"}, {"measurement": "Serious TEAE: Cardiac failure chronic", "setting": "[2]; PT, Safety population", "value": "1 (0.2%) n (%)"}, {"measurement": "Serious TEAE: Cardiac failure congestive", "setting": "[2]; PT, Safety population", "value": "1 (0.2%) n (%)"}, {"measurement": "Serious TEAE: Cervical dysplasia", "setting": "[2]; PT, Safety population", "value": "0 n (%)"}, {"measurement": "Serious TEAE: Cholecystitis chronic", "setting": "[2]; PT, Safety population", "value": "0 n (%)"}, {"measurement": "Serious TEAE: Chronic obstructive pulmonary disease", "setting": "[2]; PT, Safety population", "value": "1 (0.2%) n (%)"}, {"measurement": "Serious TEAE: Comminuted fracture", "setting": "[2]; PT, Safety population", "value": "1 (0.2%) n (%)"}, {"measurement": "Serious TEAE: Coronary artery disease", "setting": "[2]; PT, Safety population", "value": "1 (0.2%) n (%)"}, {"measurement": "Serious TEAE: Costochondritis", "setting": "[2]; PT, Safety population", "value": "1 (0.2%) n (%)"}, {"measurement": "Serious TEAE: Death", "setting": "[2]; PT, Safety population", "value": "0 n (%)"}, {"measurement": "Serious TEAE: Diabetes mellitus inadequate control", "setting": "[2]; PT, Safety population", "value": "0 n (%)"}, {"measurement": "Serious TEAE: Dyspnoea", "setting": "[2]; PT, Safety population", "value": "1 (0.2%) n (%)"}, {"measurement": "Serious TEAE: Electrocardiogram ST-T segment abnormal", "setting": "[2]; PT, Safety population", "value": "0 n (%)"}, {"measurement": "Serious TEAE: Erysipelas", "setting": "[2]; PT, Safety population", "value": "0 n (%)"}, {"measurement": "Serious TEAE: Febrile infection", "setting": "[2]; PT, Safety population", "value": "0 n (%)"}, {"measurement": "Serious TEAE: Hydronephrosis", "setting": "[2]; PT, Safety population", "value": "1 (0.2%) n (%)"}, {"measurement": "Serious TEAE: Hypertension", "setting": "[2]; PT, Safety population", "value": "1 (0.2%) n (%)"}, {"measurement": "Serious TEAE: Lacunar infarction", "setting": "[2]; PT, Safety population", "value": "1 (0.2%) n (%)"}, {"measurement": "Serious TEAE: Lipase increased", "setting": "[2]; PT, Safety population", "value": "1 (0.2%) n (%)"}, {"measurement": "Serious TEAE: Lung cancer metastatic", "setting": "[2]; PT, Safety population", "value": "0 n (%)"}, {"measurement": "Serious TEAE: Lung neoplasm malignant", "setting": "[2]; PT, Safety population", "value": "0 n (%)"}, {"measurement": "Serious TEAE: Meningitis staphylococcal", "setting": "[2]; PT, Safety population", "value": "0 n (%)"}, {"measurement": "Serious TEAE: Metabolic acidosis", "setting": "[2]; PT, Safety population", "value": "0 n (%)"}, {"measurement": "Serious TEAE: Metastases to liver", "setting": "[2]; PT, Safety population", "value": "0 n (%)"}, {"measurement": "Serious TEAE: Metrorrhagia", "setting": "[2]; PT, Safety population", "value": "0 n (%)"}, {"measurement": "Serious TEAE: Myocardial infarction", "setting": "[2]; PT, Safety population", "value": "1 (0.2%) n (%)"}, {"measurement": "Serious TEAE: Non-cardiac chest pain", "setting": "[2]; PT, Safety population", "value": "1 (0.2%) n (%)"}, {"measurement": "Serious TEAE: Oesophagitis", "setting": "[2]; PT, Safety population", "value": "0 n (%)"}, {"measurement": "Serious TEAE: Palpitations", "setting": "[2]; PT, Safety population", "value": "0 n (%)"}, {"measurement": "Serious TEAE: Pancreatic carcinoma", "setting": "[2]; PT, Safety population", "value": "1 (0.2%) n (%)"}, {"measurement": "Serious TEAE: Pancytopenia", "setting": "[2]; PT, Safety population", "value": "1 (0.2%) n (%)"}, {"measurement": "Serious TEAE: Pneumonia", "setting": "[2]; PT, Safety population", "value": "1 (0.2%) n (%)"}, {"measurement": "Serious TEAE: Prostate cancer recurrent", "setting": "[2]; PT, Safety population", "value": "1 (0.2%) n (%)"}, {"measurement": "Serious TEAE: Pyelonephritis acute", "setting": "[2]; PT, Safety population", "value": "1 (0.2%) n (%)"}, {"measurement": "Serious TEAE: Radiculopathy", "setting": "[2]; PT, Safety population", "value": "0 n (%)"}, {"measurement": "Serious TEAE: Renal colic", "setting": "[2]; PT, Safety population", "value": "0 n (%)"}, {"measurement": "Serious TEAE: Respiratory failure", "setting": "[2]; PT, Safety population", "value": "0 n (%)"}, {"measurement": "Serious TEAE: Spinal osteoarthritis", "setting": "[2]; PT, Safety population", "value": "0 n (%)"}, {"measurement": "Serious TEAE: Squamous cell carcinoma of skin", "setting": "[2]; PT, Safety population", "value": "0 n (%)"}, {"measurement": "Serious TEAE: Squamous cell carcinoma of the oral cavity", "setting": "[2]; PT, Safety population", "value": "1 (0.2%) n (%)"}, {"measurement": "Serious TEAE: Tendon rupture", "setting": "[2]; PT, Safety population", "value": "0 n (%)"}, {"measurement": "Serious TEAE: Thyroid adenoma", "setting": "[2]; PT, Safety population", "value": "1 (0.2%) n (%)"}, {"measurement": "Serious TEAE: Toxicity to various agents", "setting": "[2]; PT, Safety population", "value": "0 n (%)"}, {"measurement": "Serious TEAE: Transient ischaemic attack", "setting": "[2]; PT, Safety population", "value": "0 n (%)"}, {"measurement": "Serious TEAE: Urinary tract infection", "setting": "[2]; PT, Safety population", "value": "0 n (%)"}, {"measurement": "Serious TEAE: Urosepsis", "setting": "[2]; PT, Safety population", "value": "1 (0.2%) n (%)"}, {"measurement": "Serious TEAE: Urticaria", "setting": "[2]; PT, Safety population", "value": "0 n (%)"}, {"measurement": "TEAE leading to death: Acute myocardial infarction", "setting": "[2]; PT, Safety population", "value": "1 (0.2%) n (%)"}, {"measurement": "TEAE leading to death: Acute pulmonary oedema", "setting": "[2]; PT, Safety population", "value": "1 (0.2%) n (%)"}, {"measurement": "TEAE leading to death: Cardiac failure acute", "setting": "[2]; PT, Safety population", "value": "1 (0.2%) n (%)"}, {"measurement": "TEAE leading to death: Cardiac failure congestive", "setting": "[2]; PT, Safety population", "value": "0 n (%)"}, {"measurement": "TEAE leading to death: Death", "setting": "[2]; PT, Safety population", "value": "0 n (%)"}]}
